These results are taken from patent publication US20210388084A1.

Assay [1] deals with membrane-bound full-length human CD89 (human) (UniProt P24071). Put plainly: FACS, HEK293F-huCD89, 4C +NaN3, Ab 10 ug/mL then IgA; competitor non-aggr serum IgA.
Assay [2] has the same target. Briefly: FACS, HEK293F-huCD89, 4C +NaN3, Ab 10 ug/mL then IgA; competitor heat-aggr serum IgA. Background: A flow cytometer gives signals particle by particle.
For assay [3] the target is unchanged. Put plainly: FACS, HEK293F-huCD89, titrated Ab; competitor non-aggr serum IgA.
Assay [4] shares this target. Put plainly: FACS, HEK293F-huCD89, 24 h 37C no NaN3, IgA then Ab 10 ug/mL; pre-bound non-aggr serum IgA.
The target is the same in assay [5]. Briefly: FACS, HEK293F-huCD89, unlabeled Ab 10 ug/mL first; competitor A59-PE.
The target is the same in assay [6]. Put plainly: FACS, HEK293F-huCD89, 24 h 37C no NaN3, Ab 10 ug/mL then IgA; competitor heat-aggr serum IgA.
The target is the same in assay [7]. Put plainly: FACS, HEK293F-huCD89 (Example 7 (b)); competitor heat-aggr serum IgA.
The target is the same in assay [8]. Briefly: FACS, HEK293F-huCD89, 24 h 37C no NaN3, Ab 10 ug/mL then IgA; competitor non-aggr serum IgA.
Assay [9] has the same target. Put plainly: FACS, HEK293F-huCD89, 4C +NaN3, IgA then Ab 10 ug/mL; pre-bound heat-aggr serum IgA.
For assay [10] the target is unchanged. Put plainly: FACS, HEK293F-huCD89, unlabeled Ab 10 ug/mL first; competitor A3-PE.
Assay [11] has the same target. Briefly: FACS, HEK293F-huCD89, unlabeled Ab 10 ug/mL first; competitor MIP8a-PE.
Assay [12] has the same target. Briefly: FACS, HEK293F-huCD89 (Example 7 (b)); competitor non-aggr serum IgA.
Assay [13] has the same target. Put plainly: FACS, HEK293F-huCD89, 24 h 37C no NaN3, IgA then Ab 10 ug/mL; pre-bound heat-aggr serum IgA.
For assay [14] the target is unchanged. Briefly: FACS, HEK293F-huCD89, titrated Ab; competitor heat-aggr serum IgA.
Assay [15] has the same target. Briefly: FACS, HEK293F-huCD89, 4C +NaN3, IgA then Ab 10 ug/mL; pre-bound non-aggr serum IgA.

On to “mouse anti-human CD89 antibody clone A59 (BD Biosciences)”, for which the % blocking of IgA binding in [1] and in assay [2] was 60% in each case. For the same substance, the percent IgA binding in assay [1] lay in the range of 26 to 50%; in assay [2], 26 to 50%; in assay [9] it was 76 to 125%; in [15] it was 76 to 125%. Further, the maximum inhibition of IgA binding in assay [3], in [7], in assay [12] and in [14] was 60% each time. Also, the percent IgA binding (remaining) in assay [4] is 26 to 50%; in [6], 76 to 125%; in [8], 26 to 50%; in [13], 76 to 125%. Further, the % blocking of A59-PE binding in [5] is greater than 90%. This substance registered a % blocking of A3-PE binding in assay [10] greater than 90%. Also, the % blocking of MIP8a-PE binding in assay [11] is less than 25%.

As to “mouse anti-human CD89 antibody clone A3 (Santa Cruz Biotechnology)”, the % blocking of IgA binding in [1] and in assay [2] was 60% throughout. The percent IgA binding is 26 to 50% in [1], 26 to 50% in [2], 76 to 125% in assay [9] and 76 to 125% in [15]. For the same substance, the maximum inhibition of IgA binding in assay [3], in [7], in assay [12] and in [14] was 60% each time. The same substance registered a % blocking of A59-PE binding in [5] greater than 90%. Also, the percent IgA binding (remaining) is 76 to 125% in assay [6], 26 to 50% in [8] and 76 to 125% in assay [13]. The % blocking of A3-PE binding in assay [10] was greater than 90%. This substance had a % blocking of MIP8a-PE binding in [11] of less than 25%.

Consider “purified mouse IgG1 isotype control (antibody)”, for which the percent IgA binding in assay [1], in assay [2], in [9] and in [15] was 76 to 125% throughout. The percent IgA binding (remaining) in assay [4], in assay [6], in [8] and in [13] was 76 to 125% each time.

“mouse anti-human CD89 antibody clone MIP8a (BioRad)”: the percent IgA binding in assay [1], in [2], in [9] and in assay [15] was 0 to 25% throughout. For the same substance, the percent IgA binding (remaining) in [4], in [6], in assay [8] and in assay [13] was 0 to 25% in each case. In [5], the % blocking of A59-PE binding stood at 50%. In addition, the % blocking of A3-PE binding in assay [10] amounted to 55%. In assay [11], this substance registered a % blocking of MIP8a-PE binding greater than 90%.
